{
  "source": "patent US20250019435A1",
  "about": "(ALBERT EINSTEIN COLLEGE OF MEDICINE, published 2025)",
  "binders": {"B1": {"name": "Y298F/Y328F (receptor)", "receptor chain": "HEGGQDKPLLSAWPSAVVPRGGHVTLLCRSRLGFTIFSLYKEDGVPVPELYNKIFWKSILMGPVTPAHAGTYRCRGSHPRSPIEWSAPSNPLVIVVTGLFGKPSLSAQPGPTVRTGENVTLSCSSRSSFDMYHLSREGRAHEPRLPAVPSVNGTFQADFPLGPATHGGTYTCFGSLHDSPYEWSDPSDPLLVSVTGNSSSSSSSPTEPSSKTGIRRHLHILIGTSVAIILFIILFFFLLHCCCSNKKNAAVMDQEPAGDRTVNREDSDDQDPQEVTFAQLDHCVFTQTKITSPSQRPKTPPTDTTMFMELPNAKPRSLSPAHKHHSQALRGSSRETTALSQNRVASSHVPAAGI", "notes": "also called KIR2DL5 Y298F/Y328F (ITIM and ITSM mutant) on transduced primary NK cells"}, "B2": {"name": "recombinant human DNAM-1-His tag protein (receptor, UniProt Q15762 19-247, looked up)", "chain": "EEVLWHTSVPFAENMSLECVYPSMGILTQVEWFKIGTQQDSIAIFSPTHGMVIRKPYAERVYFLNSTMASNNMTLFFRNASEDDVGYYSCSLYTYPQGTWQKVIQVVQSDSFEAAVPSNSHIVSEPGKNVTLTCQPQMTWPVQAVRWEKIQPRQIDLLTYCNLVHGRNFTSKFPRQIVSNCSHGRWSVIVIPDVTVSDSGLYRCYLQASAGENETFVMRLTVAEGKTDN", "notes": "Bought; also called CD226-His; not shown: His tag"}},
  "key": {"[1]": {"target": "T1, PVR expressed on transduced cells (PVR-YFP) (UniProt P15151 21-417)", "T1 construct": "whole, on cells; On NIH 3T3 or Raji cells; also called PVR/3T3; PVR-YFP/3T3; not shown: YFP ('PVR-YFP ... fusion protein')", "T1 sequence (looked up)": "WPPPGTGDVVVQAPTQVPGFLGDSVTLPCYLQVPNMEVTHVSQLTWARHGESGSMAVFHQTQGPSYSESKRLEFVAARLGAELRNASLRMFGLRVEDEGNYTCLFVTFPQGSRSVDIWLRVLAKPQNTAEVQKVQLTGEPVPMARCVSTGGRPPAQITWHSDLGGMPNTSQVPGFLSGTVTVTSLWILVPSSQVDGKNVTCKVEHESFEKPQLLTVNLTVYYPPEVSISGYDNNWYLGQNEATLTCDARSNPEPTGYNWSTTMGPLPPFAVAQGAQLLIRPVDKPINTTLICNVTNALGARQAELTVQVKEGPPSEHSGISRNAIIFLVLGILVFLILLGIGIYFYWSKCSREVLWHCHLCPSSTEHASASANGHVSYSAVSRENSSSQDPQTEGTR", "assay": "confocal imaging of conjugates of transduced primary NK cells with PVR-YFP/Raji cells", "method": "(§1) The KIR2DL5⁻ primary NK cells were transduced with WT KIR2DL5 or the indicated mutants, and then examined for protein expression with F8B30 (open) or mIgG1 (shaded). NC, negative control. Data are representative of 2 independent experiments. (B and C) Transduced primary NK cells were treated with (+) or without (−) pervanadate (VO₄) for 5 minutes. Cell lysates were immunoprecipitated with anti-KIR2DL5 antibodies. Phospho-tyrosine (4G10), SHP-1, SHP-2, and total KIR2DL5 were detected by immunoblots (B). Quantification of p-Tyr, SHP-1, and SHP-2 association with WT or mutant KIR2DL5 in VO₄-treated NK cells (C). WCL, whole-cell lysates. (D) Representative imaging of cell conjugates acquired upon the indicated transduced primary NK and PVR/Raji cell contact followed by staining with anti-KIR2DL5 mAb and DAPI. Scale bars: […]. (E) Lysis of scramble control or PVR^KO A427 (top) and Jurkat (bottom) by WT or mutant KIR2DL5-transduced primary NK cells at the indicated E/T ratios. Data are mean for duplicate measurements and representative of 3 independent experiments with 3 different donors. In A, and B, data are representative of 3 independent experiments. *P<0.05, **P<0.01, ***P<0.001, ****P<0.0001, by 1-way ANOVA (C), or paired Student's t test (D).\nNK-Raji conjugation assay. […] Cell mixtures were then loaded onto poly-L-lysine-precoated slides and fixed with 4% formaldehyde at RT for 15 minutes. After blocking with 5% normal goat serum at RT for 1 hour, cells were stained with 20 µg/mL anti-KIR2DL5 antibodies (a mixture of 8 homemade clones) at 4° C. overnight and then with goat anti-mIgG (H+L) Alexa Flour 647 (Invitrogen) at RT for 2 hours. The cells were permeabilized by 0.1% Triton X-100 at RT for 15 minutes and stained with Alexa Flour Plus 405 Phalloidin (Life Technologies) for 1 hour at RT. The slides were then mounted by Gold Antifade Mountant without DAPI (Life Technologies). The mean pixel intensity of synapse and non-synapse was respectively measured and statistically analyzed. Images were acquired by Leica SP8 confocal microscope and processed by ImageJ (NIH)."}, "SHP-2": {"target": "T2, SHP-2 (human, UniProt Q06124 2-593)", "T2 sequence (looked up)": "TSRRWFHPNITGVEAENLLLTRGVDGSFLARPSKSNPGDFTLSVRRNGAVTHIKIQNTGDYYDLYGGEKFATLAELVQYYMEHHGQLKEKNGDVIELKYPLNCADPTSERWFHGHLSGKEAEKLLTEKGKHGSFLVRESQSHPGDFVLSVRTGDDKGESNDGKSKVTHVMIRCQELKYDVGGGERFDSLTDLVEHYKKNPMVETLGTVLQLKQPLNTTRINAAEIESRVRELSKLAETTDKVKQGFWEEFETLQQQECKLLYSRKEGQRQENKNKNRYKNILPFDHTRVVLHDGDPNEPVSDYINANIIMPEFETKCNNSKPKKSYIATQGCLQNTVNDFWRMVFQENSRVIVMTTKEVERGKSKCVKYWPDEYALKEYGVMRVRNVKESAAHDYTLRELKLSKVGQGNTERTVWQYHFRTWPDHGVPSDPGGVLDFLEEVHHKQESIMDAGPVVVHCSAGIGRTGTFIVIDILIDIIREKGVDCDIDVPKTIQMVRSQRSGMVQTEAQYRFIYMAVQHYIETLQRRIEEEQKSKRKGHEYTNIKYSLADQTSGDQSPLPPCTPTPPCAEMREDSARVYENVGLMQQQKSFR", "assay": "co-immunoprecipitation with anti-KIR2DL5 from transduced primary NK cells with or without pervanadate, immunoblot", "method": "as §1, with “FIG. 12A-12E: KIR2DL5 ITIM and ITSM mediated NK cell inhibition and suppressed downstream signaling. (A) Tyrosine (Y) in ITIM and ITSM of KIR2DL5 was mutated to phenylalanine (F). The” for “The”\n(§2) Coimmunoprecipitation and immunoblotting. NK92 cells or primary NK cells pretreated with or without 1 mM pervanadate (New England BioLabs) were lysed in Pierce immunoprecipitation lysis buffer supplemented with protease and phosphatase inhibitor cocktail (Thermo Fisher Scientific). Proteins from whole-cell lysis were further incubated with anti-KIR2DL5 antibodies and Dynabeads protein G (Thermo Fisher Scientific) for further immunoprecipitation. […]"}, "SHP-1": {"target": "SHP-1 (human, UniProt P29350 1-595)", "sequence (P29350 whole entry)": "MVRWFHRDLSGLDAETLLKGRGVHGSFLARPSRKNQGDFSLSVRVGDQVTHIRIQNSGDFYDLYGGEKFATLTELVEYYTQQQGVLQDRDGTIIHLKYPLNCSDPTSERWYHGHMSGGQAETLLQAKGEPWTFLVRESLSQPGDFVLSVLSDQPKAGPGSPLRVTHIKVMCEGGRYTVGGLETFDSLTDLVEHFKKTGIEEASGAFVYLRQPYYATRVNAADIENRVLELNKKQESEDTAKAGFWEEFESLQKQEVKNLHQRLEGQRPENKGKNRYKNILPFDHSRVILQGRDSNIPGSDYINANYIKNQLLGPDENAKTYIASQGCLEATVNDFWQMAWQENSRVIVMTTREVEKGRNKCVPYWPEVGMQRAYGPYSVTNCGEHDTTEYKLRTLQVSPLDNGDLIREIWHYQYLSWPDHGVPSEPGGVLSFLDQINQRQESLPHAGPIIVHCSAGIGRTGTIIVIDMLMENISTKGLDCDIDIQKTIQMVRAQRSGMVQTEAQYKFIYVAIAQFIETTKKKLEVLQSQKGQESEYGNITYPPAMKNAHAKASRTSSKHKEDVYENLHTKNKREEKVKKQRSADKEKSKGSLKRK", "assay": "co-immunoprecipitation with anti-KIR2DL5 from transduced primary NK cells with or without pervanadate, immunoblot", "method": "as §1, with “FIG. 12A-12E: KIR2DL5 ITIM and ITSM mediated NK cell inhibition and suppressed downstream signaling. (A) Tyrosine (Y) in ITIM and ITSM of KIR2DL5 was mutated to phenylalanine (F). The” for “The”\nas §2"}, "[2]": {"target": "T1, PVR expressed on transduced cells …", "assay": "flow cytometry, PVR/3T3 cells preincubated with DNAM-1-His, then KIR2DL5-Ig"}},
  "data": [
    {"binder": "B1", "values": [
      {"measurement": "binding result", "setting": "[1]", "result": "binds"},
      {"measurement": "binding result", "setting": "SHP-2", "result": "no binding"},
      {"measurement": "binding result", "setting": "SHP-1", "result": "no binding"}
    ]},
    {"binder": "B2", "values": [
      {"measurement": "binding result", "setting": "[2]", "result": "binds"}
    ]}
  ]
}
